Source: the domain aggregation screens of Martell et al. (2025)

Assay: soluble fraction after stress (log2 fold change); higher = more stays soluble; pooled small domains, quantitative proteomics
Details: stress: 75 degC
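Further: 20 min heating vs room temperature control held 20 min.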

Sequence | soluble fraction (log2)
HMSDQIQQIAERIAGLRDIAGYSVEELARELGISAEEYKRYESGEVDIPIGFLYKLANKYNVELTAILT | -0.289
HMSDRFLDQEGVALSTLRPSGTVVLDSGEHLDVVTRGEFIEQGERVKVIKAESTWYVVEQIN | 0.112
HMSDRLRLGRRIRAARLEQNLSQAALAERLGISASYLNLLEHDRRSLTTVLLLKLAQVLGLELRDLAAG | -2.49
HMSDRLRPGDMVVVVGKKKRYPVFSAFDIDFVEAGDVGKVLTVKREEVVVGFPKKGEGTFTPSELNIAH | -1.18
HMSDTGQELHDALNMARRTLTILEEQAAGYTALTIPARLVLELEEKRKDVVRLETQIRSAATGTPG | -0.649
HMSDTLPRLLWNFQMAKRLDEMNGAEKRRYQLVLIHPQASEKERDYASSFAHQARMLGIEVAIRDS | -0.395
HMSDVVFRINANGLNVSGLANGERVSVYDTTGKLVTTAVSTQDNGTLNLPLKQSGGIYIARTQSGVSFKFT | -0.786
HMSDYKSYLQELVQTDKKSLSYNVVKETGPAHDKTFEVEVEVDGIIYAHGVGKSKKEAEQNAAKNAIMISA | 0.3
HMSDYLGSLSHEEKMIFNHFDEDSSTIENMAKKTELKPELISQIFLNLELRGFLRQTEGGLYEKI | -0.43
HMSDYYEVLGVTRQADAEEIKRAYRRKARQLHPDVAGPGHEEEFKEVTVAYEVLSDPEKRQAYDLGGQDAL | 0.0155
HMSEDAVKFRAAVEVENGLAQRNLNKNQAALILGVDRSYFTYIISGKKTPSPDMAKRIGLLLGFDWRVFYA | -1.89
HMSEEIKVPNFVGSTFEKAQALAQETGLEIARGEDVYSPDQEEGKITSQNPTADSVVSPGKLITVYVSKG | 0.385
HMSEIKDRLREARRNKGLSQAGLSKLLGVSQASIAAIESGRNKRPTNLVSIAKALDVSPYWLETGK | -0.229
HMSEITQTLSMIGKEVTLEIPDEKDKTKTTEVKGIVTEASFKDGTGKVKVNGEYYSIAYITSIRDT | ≥ 1.04
HMSEIVEEQNTKLKQAVSKLSKRQQEVLYLKFEEGLDYEQISKIMDLKYQSVRNLVSTAIIKIKEH | -2.72
HMSEKELTDLIERIKERRLKLEMSYQDLSDATGISKSTLQRYETGYIKKVPINQIEILAKALHTTPSYLMG | -0.411
HMSEKIDINNSNELELKQLPLTNEQIKSLIEFRRLHGEIQNIYELKNIDFFNIEKVHELKAHIEIKKII | -1.03
HMSELADDPVYTALEKAADKAGLQLTVRILNDLADAVLKRGKKKLTAAQAGKVIARAESELAKSRID | 0.00292
HMSELDASYLGQRVRYVSGFTETDPSEGLVEFRGSNWRARAEHPPLDHSGHWVIVKVESNTLWVEEKSN | -1.57
HMSENEIDELRRRFAREAMALMERKGEEVSRTRLAAELSVARARIDAVFPEESDLLEAVTAEWFA | -0.477
HMSENEVQAKVKEIVDRYAGDKSALIAILQDVQDEYRYLPKEALVSIQQQMNIPLSRVYEVATFYDAFS | -0.556
HMSEPIYTQLKEILTQKIVNGEFPPGARLPSEYELTELYHISRSTVRLALKELEASGMIVRRRGKGTFVSS | -2.39
HMSEPRYRQLATILAQEIRSNHSAGDQLPSEQALAKRFEVNRHTVRRAVDELVAAGMVTRHQGWGTQVV | -0.158
HMSEQGVITAKFASIVGNQNIQLVMFPDSVYLKGQVSSEEEKKRAETVASSLIQDRKIVNLIEFE | -0.075
HMSEQIALQFAKAKQHHTGIALKGIEALELRYKGYTGKEIAALYHTSPKSVFSWISRAKQKLRQN | -0.272
HMSEQLHALIDRLDDIPDDELKKNWPGTLRDLVDVISAELHRQGIEPAQAGMLARKVAAAQAGYMG | -0.486

Sequence | soluble fraction (log2)
HMSEQLKQIAERIKELRNIAGLGEEELAAKLDIPVDTYREYESGNVDIPVSFLYKISGMFNVELTAIL | -1.1
HMSEQLVGTVGHITVGTARTASPAEAKFLDAFEQPHYLLVEPIEPKDIFQQGDKVVLVKKQHHSWLATRYI | -1.2
HMSEQTLEDVRRLIEHLPESQKEVVKMRYYQDLSFKEIADLKGISINTALGRMHYAINNMRKMAKEYGL | -1.94
HMSEQVQLQAQVEDDLIGKRLDQVVAQLFPDYSRSRLQGWIKDGSLTVDGESRRPRDKMMGGEVVRVEATL | 0.107
HMSEQVTMIDVEGKTETEAKKALEDLGLKVEITYESADAAAGTVIGQDVKAGSTVSEGSRVTLTVSGQ | 0.528
HMSERQTGTVKWFNNAKGFGFITMADRPDDIFVHFRAIQGDGYRSLNEGEEVEFSLVEGPKGLQAEEVTK | -0.0682
HMSESAGKAFDLLFYLAKAGETVSLARLSRETGMNKATALRYLNVLESKGVVERSKLGWTLGLSLFELGSK | -2.96
HMSESIFTLYGDEKFEKIRYYLKERGFITLDALARFDFDELLFVPGVSELLISEAKQLFSRYDTSSLAAKE | -0.584
HMSETAEFIIQVNGKVRAKLQLPTDISKEEIQKLALADENVQKYLNGEPRKIIFPPNTRLVSIV | -0.315
HMSETEEWTVEGGQAGDRIDRHVAAMLGDDVSRSQVQQWIRAGRVTVNGRAVKPSDTVEEGDRVAVDLPEP | -0.189
HMSETVYQYVARQLRDMLGSGEIPVGQQLPTYRELAKRFQVSLSVIQRAMRQLKAEAVVSIAHGQGVKAVR | -1.16
HMSEVPVLVAKTDIKELELIDDRKVTLINVPQKFKMPGSFNSPEEVYNTIAAVPIKEGEQITKPRVTWP | 0.0951
HMSEVSEILTRARFFAGVKTDAELSTLLKIPYGTLIGWKTRKNIPESRIAQMALILGIRRDTLIPA | -1.86
HMSEYIFGKNVVKEAFNNPSRIEEIYVLDKNMEFVSLAKKYHIKYTVITSSEMNKMVSGNHQGVVALVK | -2.1
HMSFDENEALRKALDVFWEKGYDGTSLSDLTEAMGINKPSLYATFGNKDQLFLKAIEMYENR | -1.4
HMSFDTFKKVFSNLVEKSGYSDAEIARRLGVNRSTISRWKSGEQSPPLPKVKEIANFFGVSPMVFVD | -0.41
HMSFFNGNQMKILRKKLQLNQEEMGEKLGIKKSYVSQLENNRKEITEEIDQILQELEQEYQDKM | -0.642
HMSFGESLKKLSIALNSIRKLATTDAGKKDPKVADLLGQIRDTFNSYRTHLRKNYPDLYSGIKNQL | -0.977
HMSFGKKLRSLRQEKKLSQVELSKKLNVTSQALSQYELGKRIPDAEMIIRIADFFDVSVDYLLDRT | -1.69
HMSFGWESLENKEGVADTDLHPSGWVRIEDSRIFVVSEGDFINKGSKVTVLTVDGNRVVVRELI | -2.1
HMSFNISPTKKLILELIMNGTAAVEAIAVKAGISKGMAYNHLRELRSMGYITDEGGYKITDSGRLAV | -2.39
HMSFNNHYEILQVQPSADREVIEAAAKALLKKHHPDLGGRNTITSHIVQAKKVLTDTSQRADFDARLRERL | -0.135
HMSFNSQENKSVLWQFLLENNFFIGLSDKKFNKVKDIFEKNIQSISIVNDSISNKNKILIQKMMEELELL | -3.38
HMSFPDTYFKGNKVIGLSYNDLKKFLNNAGYSKFDEEVEEWGEKRVSIEDDMVDFYLEDDKVVSI | -0.361
HMSFPFLMPNLEGLQLDQVRVILEENGLEIGQENYQPDSKFGPGTIINHQPSVDTVVQTGQKVNLQISGTD | 0.126
HMSFSSLSNDILSEIQKDNNITYDELSEKLQKDRATIYRNMKKLVENGLLKRVGGRKSGHWEIIE | -0.102

Sequence | soluble fraction (log2)
HMSFVDFYGLFTTELQRLAELPVTADELIKNTGLHKSQLTDWLKRAEEDGVVKKLNRPVRYQVEKK | -1.66
HMSGAQIQQLLESRAPQPGMNPDMIVRRKTYMNNVFNALKGALLRVANGSSPEEVKTEVDAAIQVDPDKL | 0.353
HMSGEVLTAVVPETASGERLDKVLPQIFPPYSRSQLQTWLKEGRVTLDREIPAARLAVIGGETLRLEVPSL | -0.112
HMSGFFVYPNPAKSNIIHFPNKKSFYIYDTSGRLLIEGKGKDFIDVSTLDRGVYLLKTFENDIVKIII | -1.1
HMSGGIVRLAVKPWGEVFVDGASRGITPPLKQLTLDAGVHRIEIRNPAGPSWTKDVDVVAGQPTTVSHRF | -0.494
HMSGITDIITDGKATSRPVVVTDGGHIRVLSPYTSFAIYTLGGMSLPTESRLEPGIYIVVVDSNAVKVAV | -1.59
HMSGLGELTPRELEVLELMAQGLSNSQIAGRLFLSGAAVAKHVSSIFSKLGFEPGDENRRVRAILAFLNR | -1.41
HMSGLLTTSKLAQKHKMKTEPMLEKLTAAGYLEWRDDKHSLTEQGKKAGGQFKTGRFGAYFLWPEDLV | -0.116
HMSGPDGLTEREIEVLRLLASGLSNRAIGERLYISTNTAANHVRSILLKTGAANRTQAAMYAADHEML | -1.66
HMSGPFTELTPREREILSHLAEGQSNKVIARHLQISDGTVKLHVKAILRKLEVHSRVEAAVMAVEHGV | -2.18
HMSGPMVPNVVGLSEEMARALLSDYSITIKHAHDGVIPKDRVASQLPLATTHAKVGSSVVLTIS | -0.557
HMSGQLTEEQVKQIVTTAVKNSSGSTLTAAEVSRIVSTAVANNLTADQVKTVVNNALAGITTDISTLKA | 0.124
HMSGSFDVTLDYLNSLRNLYPAIDVEQEFRKMYAWLDSNPKNRKTERGIKRFITGWLGRAQDKAP | -1.31
HMSGSLLQTRQRLQALTDLGHYKGDLAAAWGPEAIEALKRAQAALGITVDGKWGPETEDAIQVALQAQT | -0.00363
HMSGSPREQAESEYRKAIAAVNQGRVSEATESLRAALRLDAFQVAARQLLVKLLLEAKNQDEAIQVLR | -0.986
HMSGTMYATAEVNVRSTYSSDGTIYGTLSKGTAVEITGTTDNGWVRVKYNGTTAYVYADYLSWKAP | -2.41
HMSGYAIVNNQPGRTLNLRNSPSQSNNIIGQIPSGTRLQLISRGETWSEVIFQTTRGFVMSSFLRFET | -2.38
HMSHGNAALTPRQRLRLARLVVDDQWSVSAAAEFFRVSYPTAAKWARRYVELGPAGMADRSS | -1.62
HMSHRVGDVVELTAVRMNDQGVFLDAGTGNTSDDILLHKHQMTSPVSVGDKVKVQLYLDAKNRITASMKL | -0.36
HMSIEIIEITSNSSPKNLSEIIDIDATQIVADLMGLGIMKAIDTPLENSEIEQLLEKYNLIAEFVE | -2.76
HMSILEIFGRNVQKYRKEQRLSQEKLAEYAGLHRTYIGMIERAEKNITLVNIEKIAKALNINLTKLLE | -4.25
HMSILTELDIGDKVEVVAGPFKGIQANITRIEPVRKEVTVILLDAPYQLPVTVDADYLKIIQKS | -1.63
HMSINISFEPADHLGKDVIFIRFPYDNEWIQRVRKLKGAKWSQSQRAWHVPDTEHYRTLFQLPQKI | -2.73
HMSIQDLMNSKDLSGFKVEMLSNEDIVKYKSMLQSSGFSESQAEQLALQRGLPTSELIKLRTRISDVAVT | 0.199
